The record followed here is paper PMC10397247.

Assay [1] addresses T1, O5-AA.
T1 chain: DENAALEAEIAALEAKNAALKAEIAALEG
The assay can be described thus: two-hybrid library CCmax.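 Further: natural log of median RNA to DNA barcode read ratio; higher means stronger binding.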

For assay [2], the target named is T2, O14-AA.
T2 chain: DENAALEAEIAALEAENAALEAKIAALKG
The assay can be described thus: two-hybrid library CCmax.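 Further: natural log of median RNA to DNA barcode read ratio; higher means stronger binding.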 The conditions noted are these: mean of both orientations.

Assay [3] has as its target T3, O3-AA.
T3 chain: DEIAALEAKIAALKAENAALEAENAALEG
The assay can be described thus: two-hybrid library CCmax.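 Further: natural log of median RNA to DNA barcode read ratio; higher means stronger binding.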 To be noted: mean of both orientations.

The target in assay [4] is T4, O13-AA.
T4 chain: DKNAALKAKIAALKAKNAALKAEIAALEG
The assay can be described thus: two-hybrid library CCmax.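 Further: natural log of median RNA to DNA barcode read ratio; higher means stronger binding.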 To be noted: mean of both orientations.

The target in assay [5] is T5, O6-AA.
T5 chain: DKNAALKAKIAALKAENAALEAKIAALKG
The assay can be described thus: two-hybrid library CCmax. To be noted: mean of both orientations.

The target of assay [6] is T6, O4-AA.
T6 chain: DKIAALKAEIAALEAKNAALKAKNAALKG
As to the kind of experiment: two-hybrid library CCmax. The conditions noted are these: mean of both orientations.

Assay [7] has as its target T7, P9-AA.
T7 chain: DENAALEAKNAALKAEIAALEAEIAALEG
As to the kind of experiment: two-hybrid library CCmax. The conditions noted are these: mean of both orientations.

The target of assay [8] is T8, O11-AA.
T8 chain: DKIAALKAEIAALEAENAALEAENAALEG
The assay can be described thus: two-hybrid library CCmax.

For assay [9], the target named is T9, O2-AA.
T9 chain: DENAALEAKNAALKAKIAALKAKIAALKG
The assay can be described thus: two-hybrid library CCmax. The conditions noted are these: mean of both orientations.

In assay [10] the target is T10, O7-AA.
T10 chain: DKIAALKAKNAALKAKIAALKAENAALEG
As to the kind of experiment: two-hybrid library CCmax. To be noted: mean of both orientations.

For assay [11], the target named is T11, O1-AA.
T11 chain: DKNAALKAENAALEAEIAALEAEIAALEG
The assay can be described thus: two-hybrid library CCmax.

In assay [12] the target is T12, O8-AA.
T12 chain: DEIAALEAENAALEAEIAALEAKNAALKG
As to the kind of experiment: two-hybrid library CCmax. The conditions noted are these: mean of both orientations.

Assay [13] addresses T13, P10-AA.
T13 chain: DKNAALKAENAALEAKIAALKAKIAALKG
As to the kind of experiment: two-hybrid library CCmax. To be noted: mean of both orientations.

Assay [14] concerns the target T14, 4H3628-bA.
T14 chain: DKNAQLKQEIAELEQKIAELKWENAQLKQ
As to the kind of experiment: two-hybrid library CCNG1.

For assay [15], the target named is T15, 4H1899-bA.
T15 chain: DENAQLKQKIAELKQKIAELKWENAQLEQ
The assay can be described thus: two-hybrid library CCNG1.

Assay [16] concerns the target T16, 4H570-bA.
T16 chain: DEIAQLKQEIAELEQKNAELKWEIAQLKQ
The assay can be described thus: two-hybrid library CCNG1.

Assay [17] deals with T17, 4H338-bH.
T17 chain: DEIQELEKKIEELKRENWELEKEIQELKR
The assay can be described thus: two-hybrid library CCNG1.

For assay [18], the target named is T18, 4H850-bA.
T18 chain: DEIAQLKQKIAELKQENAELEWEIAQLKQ
As to the kind of experiment: two-hybrid library CCNG1.

Assay [19] deals with T19, 4H3462-bA.
T19 chain: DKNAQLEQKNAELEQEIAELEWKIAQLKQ
The assay can be described thus: two-hybrid library CCNG1.

Assay [20] addresses T20, 4H3858-bA.
T20 chain: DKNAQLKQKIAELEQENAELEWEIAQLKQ
As to the kind of experiment: two-hybrid library CCNG1.

Assay [21] deals with T21, 4H591-bA.
T21 chain: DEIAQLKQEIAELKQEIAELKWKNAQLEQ
The assay can be described thus: two-hybrid library CCNG1.

The target of assay [22] is T22, 4H3974-bA.
T22 chain: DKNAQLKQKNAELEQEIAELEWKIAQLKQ
As to the kind of experiment: two-hybrid library CCNG1.

Assay [23] deals with T23, 4H1544-bA.
T23 chain: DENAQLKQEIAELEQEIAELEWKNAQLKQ
As to the kind of experiment: two-hybrid library CCNG1.

Assay [24] deals with T24, 4H1348-bA.
T24 chain: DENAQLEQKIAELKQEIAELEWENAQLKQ
The assay can be described thus: two-hybrid library CCNG1.

Assay [25] has as its target T25, 4H3638-bA.
T25 chain: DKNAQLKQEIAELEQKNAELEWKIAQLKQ
As to the kind of experiment: two-hybrid library CCNG1.

The target in assay [26] is T26, 4H3817-bA.
T26 chain: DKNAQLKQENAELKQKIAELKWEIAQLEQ
The assay can be described thus: two-hybrid library CCNG1.

The target of assay [27] is T27, 4H3175-bA.
T27 chain: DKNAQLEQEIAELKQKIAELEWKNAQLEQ
The assay can be described thus: two-hybrid library CCNG1.

Assay [28] has as its target T28, 4H3613-bA.
T28 chain: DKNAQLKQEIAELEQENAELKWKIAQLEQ
As to the kind of experiment: two-hybrid library CCNG1.

In assay [29] the target is T29, 4H3162-bA.
T29 chain: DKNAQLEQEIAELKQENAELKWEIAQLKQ
As to the kind of experiment: two-hybrid library CCNG1.

Assay [30] addresses T30, 4H3277-bA.
T30 chain: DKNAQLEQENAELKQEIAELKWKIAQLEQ
The assay can be described thus: two-hybrid library CCNG1.

In assay [31] the target is T31, 4H1373-bA.
T31 chain: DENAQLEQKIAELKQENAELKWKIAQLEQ
As to the kind of experiment: two-hybrid library CCNG1.

The target of assay [32] is T32, 4H1985-bA.
T32 chain: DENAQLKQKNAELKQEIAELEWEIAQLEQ
The assay can be described thus: two-hybrid library CCNG1.

The target of assay [33] is T33, 4H3926-bA.
T33 chain: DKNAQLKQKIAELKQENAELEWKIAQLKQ
The assay can be described thus: two-hybrid library CCNG1.

The target in assay [34] is T34, 4H3497-bA.
T34 chain: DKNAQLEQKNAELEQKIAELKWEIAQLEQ
As to the kind of experiment: two-hybrid library CCNG1.

The target in assay [35] is T35, 4H1710-bA.
T35 chain: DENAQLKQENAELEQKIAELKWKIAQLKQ
As to the kind of experiment: two-hybrid library CCNG1.

In assay [36] the target is T36, 4H626-bA.
T36 chain: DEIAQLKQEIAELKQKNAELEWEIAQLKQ
The assay can be described thus: two-hybrid library CCNG1.

In assay [37] the target is T37, 4H1449-bA.
T37 chain: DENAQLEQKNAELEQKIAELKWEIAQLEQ
As to the kind of experiment: two-hybrid library CCNG1.

For assay [38], the target named is T38, 4H3298-bA.
T38 chain: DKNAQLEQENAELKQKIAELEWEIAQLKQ
As to the kind of experiment: two-hybrid library CCNG1.

Assay [39] has as its target T39, 4H906-bA.
T39 chain: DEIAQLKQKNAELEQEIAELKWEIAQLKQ
The assay can be described thus: two-hybrid library CCNG1.

Turning to DKNAALKAENAALEAEIAALEAEIAALEG [O1-AA], the interaction score was -1.72 in [1]; -1.66 in assay [2]; -1.57 in [3]; 0.0154 in assay [4]; -1.79 in assay [5]; -1.07 in assay [6]. Also, the interaction score in [7] is -0.278; in [8] it was -1.61; in assay [9], 2.13; in assay [10], -0.639; in assay [11], -2.06; in assay [12] it was -1.41. Besides, the interaction score in assay [13] was determined as 1.05.

With DENAQLEQKIAELKQEIAELEWENAQLKQ [4H1348-bA], the interaction score in [14] is 1.84; in assay [15], 1.63; in assay [16], -0.301; in assay [17] it was 1.22; in [18], -0.292; in assay [19], 0.657. Further, the interaction score is -0.895 in assay [20]; -1.02 in assay [21]; 0.469 in [22]; -0.0997 in [23]; 0.78 in assay [24]; -0.0281 in [25]. Moreover, the interaction score in assay [26] was -0.318; in assay [27] it was 0.0318; in [28], -1.05; in assay [29], -0.332; in assay [30], -0.24; in assay [31], -0.7. Also, the interaction score in assay [32] was -0.366; in assay [33] it was -0.392; in [34], -0.616; in assay [35] it was 0.798; in assay [36] it was -0.434; in assay [37], -0.151. For the same molecule, the interaction score is -0.624 in assay [38] and -0.721 in [39].
